Assay results taken from publication PMC9231623, “ESCPE-1 mediates retrograde endosomal sorting of the SARS-CoV-2 host factor Neuropilin-1” (Proceedings of the National Academy of Sciences of the …, 2022).

Tests used:
[1] = target: T1, SNX5 PX domain (UniProt Q9Y5X3 25-172); assay: ITC; Microcal ITC200, 298 K; 50 mM Hepes pH 7.5, 200 mM NaCl, 0.5 mM TCEP; SNX5/6 PX titrated with NRP1 peptide, 13 injections; single site binding model; mean of three experiments; conditions: both partners purified
T1 construct: PX domain of sorting nexin 5, from a pGEX-4T-2 construct; also called PX domain of SNX5; source: E. coli BL21 (DE3), purified (glutathione Sepharose 4B, thrombin cleavage, Superdex 75 gel filtration)
T1 sequence (looked up): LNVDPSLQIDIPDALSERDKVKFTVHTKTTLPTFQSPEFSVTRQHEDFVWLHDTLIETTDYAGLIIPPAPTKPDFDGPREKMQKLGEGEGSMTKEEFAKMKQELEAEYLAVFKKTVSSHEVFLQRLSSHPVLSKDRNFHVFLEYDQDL

[2] = target: T2, SNX6 PX domain (UniProt Q9UNH7 26-173); assay: as above; conditions: both partners purified
T2 construct: PX domain of sorting nexin 6, from a pGEX-4T-2 construct; also called PX domain of SNX6; source: E. coli BL21 (DE3), purified (glutathione Sepharose 4B, thrombin cleavage, Superdex 75 gel filtration)
T2 sequence (looked up): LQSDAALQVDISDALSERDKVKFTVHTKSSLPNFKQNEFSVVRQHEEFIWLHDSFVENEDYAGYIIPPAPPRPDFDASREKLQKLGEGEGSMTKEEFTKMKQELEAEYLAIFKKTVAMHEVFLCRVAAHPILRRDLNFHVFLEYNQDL

B1: NRP1 peptide (residues 894 to 918 of the cytosolic tail) (peptide)
peptide: not shown
notes: Neuropilin-1 cytosolic tail, residues 894 to 918; only stretches of it are printed (898-NYNFELV-904, 905-DG-906, 907-VKLKKD-912); also called synthetic peptide corresponding to these residues in NRP1; source: synthetic peptide
- Kd [1]: 19.8 µM
- Kd [2]: 14.3 µM
